Source: paper PMC3684052 (Molecular cell, 2013)
No end group written: not given here.

Key:
Experiment in all cases: pull-down
[1] = target: T1, His-ICAP1 (49–200), wild type (human, UniProt O14713 49-200)
T1 sequence (looked up): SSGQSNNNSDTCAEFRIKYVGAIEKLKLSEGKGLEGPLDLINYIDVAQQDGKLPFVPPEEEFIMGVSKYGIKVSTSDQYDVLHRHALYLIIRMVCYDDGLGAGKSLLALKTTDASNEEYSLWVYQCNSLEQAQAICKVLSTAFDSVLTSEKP

His-ICAP1 (49–200) C184D = target: T2, His-ICAP1 (49–200) C184D (human, UniProt O14713 49-200, C184D)
T2 sequence (looked up): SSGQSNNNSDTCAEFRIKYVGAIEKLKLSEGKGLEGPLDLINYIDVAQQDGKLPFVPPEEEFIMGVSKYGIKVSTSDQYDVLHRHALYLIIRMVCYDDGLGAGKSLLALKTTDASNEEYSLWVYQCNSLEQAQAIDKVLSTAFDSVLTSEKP

[2] = target: T3, His-ICAP1 (49–200) L135A/I138A/I139A (human, UniProt O14713 49-200, L135A | I138A | I139A)
T3 sequence (looked up): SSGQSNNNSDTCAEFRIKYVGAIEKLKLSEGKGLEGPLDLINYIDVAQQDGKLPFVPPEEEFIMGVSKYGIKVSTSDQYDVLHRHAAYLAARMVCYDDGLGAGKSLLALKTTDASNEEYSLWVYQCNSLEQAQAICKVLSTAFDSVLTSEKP

[3] = target: T4, His-ICAP1 (49–200) D93A/Q96A (human, UniProt O14713 49-200, D93A | Q96A)
T4 sequence (looked up): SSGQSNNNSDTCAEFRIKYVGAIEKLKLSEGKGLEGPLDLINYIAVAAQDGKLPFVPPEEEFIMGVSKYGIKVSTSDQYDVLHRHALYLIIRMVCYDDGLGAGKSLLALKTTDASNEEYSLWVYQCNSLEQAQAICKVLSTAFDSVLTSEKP

His-ICAP1 (49–200) I89R = target: T5, His-ICAP1 (49–200) I89R (human, UniProt O14713 49-200, I89R)
T5 sequence (looked up): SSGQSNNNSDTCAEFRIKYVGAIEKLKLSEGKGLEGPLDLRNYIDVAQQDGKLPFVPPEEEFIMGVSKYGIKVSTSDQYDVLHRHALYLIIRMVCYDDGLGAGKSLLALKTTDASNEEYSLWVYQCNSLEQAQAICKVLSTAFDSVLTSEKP

Binder	binding result [1]	binding result (His-ICAP1 (49–200) C184D)	binding result [2]	binding result [3]	binding result (His-ICAP1 (49–200) I89R)
QSHFIPDLFRPSDLERIKTNVINPAYATE (domain or fragment, human, UniProt O00522 170-198, looked up) [GST-KRIT1 (residues 170–198) A176D/P182D]	binds				
QSHFIPALFRPSPLERIKTNVIAPAAATE (domain or fragment, human, UniProt O00522 170-198, looked up) [GST-KRIT1 (residues 170–198) N192A/Y195A]	binds				

Next, values leading:

binding result [1]	binding result (His-ICAP1 (49–200) C184D)	binding result [2]	binding result [3]	binding result (His-ICAP1 (49–200) I89R)	Binder
binds					QSHFIPALFAPSPLEAIKTNVINPAYATE (domain or fragment, human, UniProt O00522 170-198, looked up) [GST-KRIT1 (residues 170–198) R179A/R185A]
binds	binds	binds	binds	binds	QSHFIPALFRPSPLERIKTNVINPAYATE (domain or fragment, human, UniProt O00522 170-198, looked up) [GST-KRIT1 (residues 170–198), wild type]
binds			binds	binds	KLLMIIHDRREFAKFEKEKMNAKWDTGENPIYKSAVTTVVNPKYEGK (domain or fragment, UniProt P05556 752-798, looked up, also: GST fusion) [GST-integrin β1 fusion protein (residues 752 to 798), wild type]
